Reference: patent publication US20240116985A1 (published 2024)
Starred links: 1 amine or outer side, 2 acyl side, 3 side chain; linkers in the order of their positions; H or OH if unused. Positions of bridges follow the written chain, without caps; N, C: chain ends. Non-standard residues stand in square brackets, D forms with d. Primed or numbered codes have the meaning given here. B5(17) = 2,2-bis(4-pentenyl)glycine = 2-amino-2-(pent-4-en-1-yl)hept-6-enoic acid, stitching residue, C=CCCCC(CCCC=C)(N[*:1])C(=O)[*:2]; B5(4) = 2,2-bis(4-pentenyl)glycine = 2-amino-2-(pent-4-en-1-yl)hept-6-enoic acid (stitching residue), C=CCCCC(CCCC=C)(N[*:1])C(=O)[*:2]; Phe(3,4-F2) = N[C@@H](Cc1ccc(F)c(F)c1)C(=O)O; Phe(3-F) = N[C@@H](Cc1cccc(F)c1)C(=O)O; Phe(4-F) = N[C@@H](Cc1ccc(F)cc1)C(=O)O; 1Nal = N[C@@H](Cc1cccc2ccccc12)C(=O)O; αAllylPro = C=CC[C@@]1(C(=O)O)CCCN1; 2Pal = N[C@@H](Cc1ccccn1)C(=O)O; 3Pal = N[C@@H](Cc1cccnc1)C(=O)O; S8 = C=CCCCCCC[C@](C)(N)C(=O)O

B1: I-265: Ac-PL3-Asp-Ala-B5-Asp-Asp-Ala-Ala-3FF-Val-S8-Phe-Trp-Gln-NH2 (peptide)
peptide: Ac-[αAllylPro]DA[B5(4)]DDAA[Phe(3-F)]V[S8]FWQ-NH2
modifications: staple 1-4, 4-11; also: staple isomer composition, later HPLC peak
notes: Stapled (stitched) peptide
B2: I-285: Ac-PL3-Asp-Ala-B5-Asp-Asp-Ala-Ala-Phe-Val-S8-His-Trp-Gln-NH2 (peptide)
peptide: XDAXDDAAFVXHWQ
modifications: not fully specified; N-terminal Ac; PL3 at 1, B5 at 4, S8 at 11 (olefin-metathesis staples 1-4 and 4-11); C-terminal amide
notes: Stapled (stitched) peptide
B3: I-286: Ac-PL3-Asp-Ala-B5-Asp-Asp-Ala-Ala-Phe-Ala-S8-Phe-Trp-Ala-NH2 (peptide)
peptide: XDAXDDAAFAXFWA
modifications: not fully specified; N-terminal Ac; PL3 at 1, B5 at 4, S8 at 11 (olefin-metathesis staples 1-4 and 4-11); C-terminal amide
notes: Stapled (stitched) peptide
B4: I-291: Ac-PL3-Asp-Ala-B5-Asp-Asp-Ala-Ala-Phe-Val-S8-Phe-Trp-Ala-NH2 (peptide)
peptide: XDAXDDAAFVXFWA
modifications: not fully specified; N-terminal Ac; PL3 at 1, B5 at 4, S8 at 11 (olefin-metathesis staples 1-4 and 4-11); C-terminal amide
notes: Stapled (stitched) peptide
B5: I-292: Ac-PL3-Asp-Ala-B5-Asp-Asp-Ala-Ala-Phe-Val-S8-Phe-Trp-Ala-NH2 (peptide)
peptide: XDAXDDAAFVXFWA
modifications: not fully specified; N-terminal Ac; PL3 at 1, B5 at 4, S8 at 11 (olefin-metathesis staples 1-4 and 4-11); C-terminal amide
notes: Stapled (stitched) peptide
B6: I-266: Ac-PL3-Asp-Ala-B5-Asp-Asp-Ala-Ala-4FF-Val-S8-Phe-Trp-Gln-NH2 (peptide)
peptide: Ac-[αAllylPro]DA[B5(17)]DDAA[Phe(4-F)]V[S8]FWQ-NH2
modifications: staple 1-4, 4-11
notes: Stapled (stitched) peptide
B7: I-267: Ac-PL3-Asp-Ala-B5-Asp-Asp-Ala-Ala-34FF-Val-S8-Phe-Trp-Gln-NH2 (peptide)
peptide: Ac-[αAllylPro]DA[B5(17)]DDAA[Phe(3,4-F2)]V[S8]FWQ-NH2
modifications: staple 1-4, 4-11
notes: Stapled (stitched) peptide
B8: I-270: Ac-PL3-Asp-Ala-B5-Asp-2PyrA-Ala-Ala-Phe-Val-S8-Phe-Trp-Gln-NH2 (peptide)
peptide: Ac-[αAllylPro]DA[B5(17)]D[2Pal]AAFV[S8]FWQ-NH2
modifications: staple 1-4, 4-11
notes: Stapled (stitched) peptide
B9: I-271: Ac-PL3-Asp-Ala-B5-Asp-3PyrA-Ala-Ala-Phe-Val-S8-Phe-Trp-Gln-NH2 (peptide)
peptide: Ac-[αAllylPro]DA[B5(17)]D[3Pal]AAFV[S8]FWQ-NH2
modifications: staple 1-4, 4-11
notes: Stapled (stitched) peptide
B10: I-275: Ac-PL3-Asp-Ala-B5-Asp-Asp-Ala-Ala-Phe-Val-S8-1NapA-Trp-Gln-NH2 (peptide)
peptide: Ac-[αAllylPro]DA[B5(4)]DDAAFV[S8][1Nal]WQ-NH2
modifications: staple 1-4, 4-11; also: earlier-eluting HPLC staple isomer
notes: Stapled (stitched) peptide
B11: I-276: Ac-PL3-Asp-Ala-B5-Asp-Asp-Ala-Ala-Phe-Val-S8-1NapA-Trp-Gln-NH2 (peptide)
peptide: Ac-[αAllylPro]DA[B5(4)]DDAAFV[S8][1Nal]WQ-NH2
modifications: staple 1-4, 4-11; also: later-eluting HPLC staple isomer
notes: Stapled (stitched) peptide
B12: I-289: Ac-PL3-Asp-Ala-B5-Asp-Asp-Ala-Ala-Phe-Val-S8-Phe-Trp-NH2 (peptide)
peptide: XDAXDDAAFVXFW
modifications: not fully specified; N-terminal Ac; PL3 at 1, B5 at 4, S8 at 11 (olefin-metathesis staples 1-4 and 4-11); C-terminal amide
notes: Stapled (stitched) peptide
B13: I-290: Ac-PL3-Asp-Ala-B5-Asp-Asp-Ala-Ala-Phe-Val-S8-Phe-Trp-NH2 (peptide)
peptide: XDAXDDAAFVXFW
modifications: not fully specified; N-terminal Ac; PL3 at 1, B5 at 4, S8 at 11 (olefin-metathesis staples 1-4 and 4-11); C-terminal amide
notes: Stapled (stitched) peptide

target: T1, beta-catenin, full-length (Uniprot ID P35222) (Homo sapiens (Human), UniProt P35222 2-781); experiment: fluorescence polarization competition, displacement of 5FAM-TCF4 10-53 from full-length beta-catenin
T1 construct: tags are not described; also called bCat; B-Catenin
T1 sequence: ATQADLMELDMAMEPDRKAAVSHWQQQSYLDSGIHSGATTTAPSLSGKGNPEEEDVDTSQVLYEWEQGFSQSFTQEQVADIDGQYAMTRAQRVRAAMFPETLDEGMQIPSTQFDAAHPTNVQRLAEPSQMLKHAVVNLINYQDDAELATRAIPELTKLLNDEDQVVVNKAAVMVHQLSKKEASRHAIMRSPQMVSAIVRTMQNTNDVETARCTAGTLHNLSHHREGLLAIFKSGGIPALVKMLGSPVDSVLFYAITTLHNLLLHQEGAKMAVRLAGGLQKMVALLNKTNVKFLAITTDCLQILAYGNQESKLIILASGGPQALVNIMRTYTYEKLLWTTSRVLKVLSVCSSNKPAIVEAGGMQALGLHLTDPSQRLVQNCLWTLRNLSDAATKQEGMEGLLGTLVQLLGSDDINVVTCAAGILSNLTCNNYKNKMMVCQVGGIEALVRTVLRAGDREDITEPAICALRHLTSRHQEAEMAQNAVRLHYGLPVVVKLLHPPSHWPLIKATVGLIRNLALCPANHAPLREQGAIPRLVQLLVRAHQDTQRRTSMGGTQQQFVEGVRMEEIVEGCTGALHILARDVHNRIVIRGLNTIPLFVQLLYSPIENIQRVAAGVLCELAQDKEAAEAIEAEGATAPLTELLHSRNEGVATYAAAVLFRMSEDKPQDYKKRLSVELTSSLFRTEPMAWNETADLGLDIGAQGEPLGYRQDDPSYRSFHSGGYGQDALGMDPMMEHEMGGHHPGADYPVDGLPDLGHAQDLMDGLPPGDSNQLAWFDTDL
Experimental: The plate was incubated protected from light for 60 minutes at 20° C. prior to read. Reads were performed on a CLARIOstar plate reader (BMG Labtech) in duplicate, and data were fitted to a 1:1 binding model with hill slope using an in-house script. All provided concentrations are final concentrations.

IC50 | Binder
3.76 µM | B1
5 µM | B2
4.48 µM | B3
3.13 µM | B4
1.87 µM | B5
5 µM | B6
5 µM | B7
5 µM | B8
5 µM | B9
5 µM | B10
3.43 µM | B11
5 µM | B12
3.29 µM | B13
